Assay results: patent WO2013167756A1

Target: CD22 on CD22-positive Raji cells and CD22 positive Ramos cells (human) (UniProt P20273)
Assay: flow cytometry on CD22-positive Raji cells, PE anti-human IgG Fc secondary, four-parameter fit

“AGC1100, anti-CD22 monoclonal antibody hLL2, also called epratuzumab” was tested, and the EC50 was 9 nM.
